# Measurements reported in PMC3741120, “A Sperm–Plasma β-N-Acetyl-D-Hexosaminidase Interacting with a Chitinolytic β-N-Acetyl-D-Hexosaminidase in Insect Molting Fluid” (PLoS ONE, 2013).
# Assays:
# purified protein [1] = substrate: CC(=O)N[C@H]1[C@H](Oc2ccc([N+](=O)[O-])cc2)O[C@H](CO)[C@H](O)[C@@H]1O; assay: purified protein; format: biochemical, Ostrinia furnacalis; conditions: Britton-Robinson buffer (pH of kinetics not given), 25°C, 30 min
# purified protein [2] = substrate: CC(=O)N[C@H]1[C@H](Oc2ccc([N+](=O)[O-])cc2)O[C@H](CO)[C@@H](O)[C@@H]1O; assay: purified protein; format: biochemical, Ostrinia furnacalis; conditions: Britton-Robinson buffer (pH of kinetics not given), 25°C, 30 min
protein,measurement,setting,value
"OfHex3 (Ostrinia furnacalis) (protein, mature protein without signal peptide (residues 1-18 removed; ORF 609 residues); C-terminal 6xHis, N-terminal alpha-factor secretion signal; Pichia pastoris GS115; glycosylated, 75 kDa on SDS-PAGE) NENEIKDPTPIVYEPSWVFKCIPNVGCQRAAHPQSMMTTNSSHVFYDSIDLCRTVCGRFGGIWPKPLTAGLSMQTVQMHPTHLRYDLSDVPAEARELIAQMTQVASSNLLAECRGNVTEVVDTPVVVYLVVTSENLDLTWDTDEKYDLDVQTKNQKVSVTITAATVYGARHGLETFTQLVTADRPEYSDQTRCALRVISGARIKDYPAYRHRGLVLDTSRHFIPMKDIKRTIDGMAASKLNVFHWHVTDSHSFPLESTRVPQFTRYGAYSSSEIYSAEEVRQLIKYAQIRGVRVVIEIDSPAHAGNGWQWGQDYGFGDLAVCVNTEPWRGLCIQPPCGQLNPANPTMYRVLRNLYKDLAEALPKPALFHMGGDEVFFPCWNSSEQIRAYMQEKGLNTTTEGFLRLWSEFHETILSIWDEELKAIGTDAQPVILWSSALTKSNYVQRFLNKDRYVIEVWEPLDSPLLMELLRLGYRTISVPKDVWYLDHGFWGSTKFSNWRRMYAYILPKSQHMLGGEVAMWSEYVDKEVLDTRIWPRAAAVAERLWADPMSTASAAEPRLQRFRSRLQARGLRPDAMSPAWCEQHDGRCL",Km,purified protein [1],2673 µM
same,kcat,purified protein [1],5.63 s⁻¹
same,kcat/Km,purified protein [1],2110 M⁻¹ s⁻¹
same,Km,purified protein [2],1627 µM
same,kcat,purified protein [2],27.7 s⁻¹
same,kcat/Km,purified protein [2],17000 M⁻¹ s⁻¹
